Data published in paper PMC12212125, “Constitutively active Arabidopsis cryptochrome two alleles identified using yeast selection and deep mutational scanning” (The Journal of Biological Chemistry, 2025).

Legend:
[1] = target: pCRY-PHR D393S (amino acids 1-504) (Chlamydomonas reinhardtii); experiment: SEC; Superdex 200 Increase 10/300 GL, under light exclusion at 4 °C, 50 mM Tris pH 7.8, 100 mM NaCl, 1 mM ATP, 1 mM MgCl2; samples at OD450 = 1; apparent masses from calibration
[2] = target: T1, pCRY-PHR (plant cryptochrome pCRY, PHR domain) (Chlamydomonas reinhardtii, UniProt Q42696, D393S); experiment: UV-vis absorbance and time-resolved UV-vis difference spectroscopy of purified protein; type: binding; conditions: 50 mM phosphate pH 7.8, 100 mM NaCl, 3 mM ATP, 1% glycerol, 10 °C, with or without 2 mM DTT; co-purified chromophore; time-resolved spectra at 13 °C without DTT
T1 construct: gene CPH1; PHR domain, amino acids 1-504, N-terminal His6 and C-terminal StrepII tags (printed for D393S), E. coli BL21(DE3), pET-28a(+); theoretical mass 59 kDa, wild type monomeric in the dark

[3] = target: Region II mutations (V367M, K368E, Y399S, S401F, P405L) placed in the CRY2PHR background; experiment: two-hybrid; BD-CRY2PHR (1-498) variants and AD-CIB1, AH109 x Y187, beta-galactosidase reporter (Miller Units, ONPG), dark for 2 h
[4] = target: T2, CRY2PHR (residues 1-498 of CRY2, lacking the CCE), Gal4BD fusion, wild type (Arabidopsis thaliana, UniProt Q96524 1-498); experiment: two-hybrid; BD-CRY2PHR (1-498) variants and AD-CIB1, AH109 x Y187, beta-galactosidase reporter (Miller Units, ONPG), light for 2 h; conditions: partners not purified
T2 construct: Cryptochrome 2 (CRY2), Arabidopsis thaliana, photolyase homology region, residues 1-498; also called BD-CRY2PHR; pDBTrp-CRY2PHR; source: yeast two-hybrid fusion (AH109 x Y187)
T2 sequence (Q96524 1-498): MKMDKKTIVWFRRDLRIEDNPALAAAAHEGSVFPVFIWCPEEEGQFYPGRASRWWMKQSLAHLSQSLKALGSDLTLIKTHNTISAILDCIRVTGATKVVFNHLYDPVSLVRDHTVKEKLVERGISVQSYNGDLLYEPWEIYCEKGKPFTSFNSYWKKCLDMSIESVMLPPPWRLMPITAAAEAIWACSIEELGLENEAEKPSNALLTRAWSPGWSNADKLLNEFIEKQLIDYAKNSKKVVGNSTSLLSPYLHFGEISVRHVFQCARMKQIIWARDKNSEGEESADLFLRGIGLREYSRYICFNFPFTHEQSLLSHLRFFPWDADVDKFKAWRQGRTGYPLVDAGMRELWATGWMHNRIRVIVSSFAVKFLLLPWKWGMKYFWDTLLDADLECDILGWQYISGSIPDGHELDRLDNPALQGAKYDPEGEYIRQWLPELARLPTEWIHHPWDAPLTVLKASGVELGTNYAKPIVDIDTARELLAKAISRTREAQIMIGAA

T1 sequence (Q42696 entry or part of it D393S): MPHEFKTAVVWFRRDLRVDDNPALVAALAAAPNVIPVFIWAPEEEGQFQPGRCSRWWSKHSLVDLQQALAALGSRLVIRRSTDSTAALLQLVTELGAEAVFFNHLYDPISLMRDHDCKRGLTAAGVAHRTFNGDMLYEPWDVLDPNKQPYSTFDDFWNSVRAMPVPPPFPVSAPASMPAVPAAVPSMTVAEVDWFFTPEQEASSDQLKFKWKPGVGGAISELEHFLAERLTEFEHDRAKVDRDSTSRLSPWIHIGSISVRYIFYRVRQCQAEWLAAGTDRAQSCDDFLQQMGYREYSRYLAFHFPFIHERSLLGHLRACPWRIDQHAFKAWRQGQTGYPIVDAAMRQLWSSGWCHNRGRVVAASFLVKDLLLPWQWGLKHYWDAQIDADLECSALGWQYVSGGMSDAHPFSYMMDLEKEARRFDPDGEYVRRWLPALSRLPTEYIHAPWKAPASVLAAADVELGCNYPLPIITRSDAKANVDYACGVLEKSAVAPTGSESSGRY

pCRY-PHR D393S (amino acids 1-504) (domain or fragment)
stoichiometry N [1]: 2

Cc1cc2nc3c(=O)[nH]c(=O)nc-3n(C[C@H](O)[C@H](O)[C@H](O)COP(=O)(O)OP(=O)(O)OC[C@H]3O[C@@H](n4cnc5c(N)ncnc54)[C@H](O)[C@@H]3O)c2cc1C [FAD]
UV-vis absorbance and time-resolved UV-vis difference spectroscopy of purified p [2]: The D393S mutant forms homomers in the dark with oxidized FAD bound

B1: CRYPTOCHROME-… BASIC-HELIX-LOOP-HELIX 1 (CIB1), Gal4AD fusion (natural protein)
chain: MNGAIGGDLLLNFPDMSVLERQRAHLKYLNPTFDSPLAGFFADSSMITGGEMDSYLSTAGLNLPMMYGETTVEGDSRLSISPETTLGTGNFKKRKFDTETKDCNEKKKKMTMNRDDLVEEGEEEKSKITEQNNGSTKSIKKMKHKAKKEENNFSNDSSKVTKELEKTDYIHVRARRGQATDSHSIAERVRREKISERMKFLQDLVPGCDKITGKAGMLDEIINYVQSLQRQIEFLSMKLAIVNPRPDFDMDDIFAKEVASTPMTVVPSPEMVLSGYSHEMVHSGYSSEMVNSGYLHVNPMQQVNTSSDPLSCFNNGEAPSMWDSHVQNLYGNLGV
fold higher basal (dark) interaction than wild-type CRY2PHR (beta-galactosidase reporter) [3]: 4 to 7 fold

B2: CRYPTOCHROME-INTERACTING BASIC-HELIX-LOOP-HELIX 1 (CIB1), Gal4AD fusion (natural protein, Arabidopsis thaliana, UniProt Q8GY61 1-335, looked up)
chain: B1 chain
notes: CIB1, transcription factor, Arabidopsis thaliana; also called GalAD-CIB1; Gal4AD-CIB1; source: yeast two-hybrid fusion (MaV203; Y187, mated to AH109)
fold increase of interaction (beta-galactosidase reporter) in light over dark [4]: 4 fold
